Assays:
phospho-Ser473 AKT = experiment: AKT phosphorylation in WT T cells stimulated with anti-CD3+anti-CD28 (immunoblot, Luminex); assay type: cell-based, mouse; conditions: 0.1 μM PI-103, 20 min
Method: FIG. 5 illustrates immunoblots of A) anti-phospho-Ser473 AKT (rep of 5 exps) of WT T cells incubated with anti-CD3+anti-CD28±C5aR-A+C3aR-A (10 ng/ml each). B) anti-phospho-Ser473 AKT (rep of 5 exps) of WT or C5ar1−/−C3ar1−/− T cells incubated with anti-CD3+anti-CD28.
FIG. 6 illustrates C5aR and C3aR Ligation Activates PI3-Kγ, which in turn promotes AKT Phosphorylation. […] (p<0.05). […] (B) WT T cells were incubated at 37° C. with anti-CD3+anti-CD28 (1 μg/ml each) for 3 min after which the cells were incubated for 20 min with buffer or 0.1 μM PI-3Kγ-specific inhibitor PI-103. Extracts were immunoblotted with anti-phospho-Ser^473 AKT or total AKT mAb (representative of five experiments). (C) OT-II T cells were incubated with 0.1 μM OVA323-339, WT DCs, and 0.1 μM PI-103±10 ng/ml C5a. Complement, IL-2, and IFNγ mRNAs were quantitated by qPCR. All error bars are ±SD.
To test whether abrogated CD28 costimulation in the absence or blockade of C5aR+C3aR relates to a requirement for these GCPR signals for optimal AKT phosphorylation, we stimulated WT T cells with anti-CD3+anti-CD28±C5aR-A and C3aR-A and assessed AKT phosphorylation by immunoblotting (FIG. 5A) and Luminex assay (FIG. 6A).
Cells were stimulated for 1 hr with 1 μg/ml anti-CD3 and/or anti-CD28 (BD Biosciences) in serum-free RPMI 1640 for qPCR analyses and for 72 hr for IFNγ ELISPOT assays. […]

[1] = tested on: Complement, IL-2, and IFNγ mRNAs; experiment: qPCR of complement, IL-2 and IFNγ mRNAs in T cells with PI-103; assay type: cell-based, mouse
Method: To test whether this signaling pathway is operational in T cells, we incubated WT T cells with anti-CD3+anti-CD28 plus a specific inhibitor (PI-103) of PI-3Kγ.
We synthesized cDNAs by incubating 20 μl of mRNAs in Sprint PowerScript Single Shots (Clontech, Mountain View, Calif.). A total of 10 μl of diluted cDNA were mixed with 2 μl of primer and 10 μl SYBR green master mix (Applied Biosystems, Foster City, Calif.) and assayed in triplicate on an ABI prism 7000 cycler. In all assays, fold increases are relative to each basal level and standardized to Actin.

EGF receptor (EGFR) = experiment: EGFR phosphorylation in the 3 tumor lines (immunoprecipitation, anti-phosphotyrosine immunoblot); assay type: cell-based, murine
From the text: (§1) Unregulated EGFR signaling has causally linked with certain cancers. Additionally, an earlier study in the literature reported that added C5a can induce EGFR phosphorylation in HeLa cells. Based on these two findings, we next asked whether EGFR phosphorylation in cancers cells is in fact dependent on C3aR/C5aR signal transduction. To do this, we cultured each of the 3 tumor lines in the presence of buffer alone, C5aR-A/C3aR-A and anti-C3a/anti-C5a mAb, or vehicle and nonrelevant mAb controls. After 2 hr, we added increasing amounts of EGF, 2 min after which we extracted the cells with NP-40 lysis buffer. We then immuoprecipitated EGFR from lysates with specific antibody and probed immunoblots of the precipitates with anti-phosphtyrosine mAb. […] To determine this C3aR/C5aR dependent step is an intermediary for EGFR phosphorylation, we repeated the above study this time using PI-103, a specific inhibitor of this enzyme. […] In a converse study, we incubated each of the 3 tumor lines without and with added C5a and measured cell growth.

T cells = experiment: In vitro T cell viability in serum-free HL-1 medium; assay type: cell-based, mouse; conditions: 300 ng/ml C5a added at time 0 and 90 min, both knockouts
Method: FIG. 7 illustrates constitutive C5a and C3a Production and Signaling via the C5aR and C3aR GPCRs Influences Cell Viability In Vitro and In Vivo. […] (B) WT and C5ar1^−/−, C3ar1^−/−, and C5ar1^−/− C3ar1^−/− T cells were incubated for 6 hr in serum-free HL-1 medium and viability assayed. (C) WT T cells were incubated at 37° C. for 6 hr in HL-1 medium±anti-C3a, anti-C5a, or anti-C3a+anti-C5a and viability assessed. (D) C3^−/− and C5-deficient T cells were incubated for 6 hr in HL-1 medium±300 ng/ml C5a added at time 0 and 90 min (E) Spleens from naive WT, C3ar1^−/−, C5ar1^−/−, and C3ar1^−/− C5ar1^−/− mice were isolated (three to five animals per group), total cell numbers were counted, and the CD3^+ fraction was determined by flow cytometry (WT=10%, C5ar1^−/−=5.4%, C3ar1^−/−=6.3, and C5ar1^−/− C3ar1^−/−=4.1%). (F) Immediately after isolation and labeling, 10^6 CFSE-labeled WT T cells and CellTracker Red CMTPX-labeled C5ar1^−/− C3ar1^−/− T cells were adoptively cotransferred into the same SCID mice (n=4 mice per group for each time point). […]
To test this possibility, we compared the survival of WT and C5ar1^−/− C3ar1^−/− T cells in vitro […]. […] Fewer surviving C5ar1^−/− C3ar1^−/− T cells were detected at 6 hr, confirming that disrupted autocrine signaling through both the C5aR and C3aR contributed to the decline (FIG. 7B). […]

B16/F10 (melanoma cell) = experiment: Cell growth after mouse C5a treatment in Opti-MEM; assay type: cell-based, murine; conditions: 100 nM C5a, 72 hr culture
Method: (§2) FIG. 2 illustrates graphs showing cell growth in 3 cancer cell lines (a) MCA 205 (fibrosarcoma), (b) B16 (melanoma cell), and (c) E0771 (breast cancer) after mouse C5a treatment in Opti-MEM media (serum-reduced media).
(§3) (a) MCA 205, (b) B16/F10 and (c) E0771. Data are representative of two experiments with duplicates. MCA 205 and E0771 were treated with 500 nM C5a and B16/F10 was treated with 100 nM C5a respectively.
(§4) Three kinds of cancer cell lines (B 16/F10, MCA 205 and E0771) were used for this experiment. Each cell line was cultured in 12-well plates (3×10^4/well) in serum reduced Opti-MEM media (Invitrogen) containing L-glutamine and penicillin+streptomycin for the indicated times (24 hr, 48 hr and 72 hr). C5a (Cell Sciences) in PBS was added in each well at 0, 24 and 48 hr time point to a final concentration 100 nM for B16/F10 and 500 nM for MCA205 and E0771 based on the preliminary experiment. At each time point (24 hr, 48 hr and 72 hr), live cells were trypsinized and counted using trypan blue (Invitrogen, Carlsbad, Calif.). Experiment was repeated two times with duplicates.

E0771 (breast cancer) = experiment: Cell growth after mouse C5a treatment in Opti-MEM; assay type: cell-based, murine; conditions: 500 nM C5a, 72 hr culture
Method: as §2, §3, §4

MCA 205 (fibrosarcoma) = experiment: Cell growth after mouse C5a treatment in Opti-MEM; assay type: cell-based, murine; conditions: 500 nM C5a, 72 hr culture
Method: as §2, §3, §4

3 tumor lines = experiment: Cell growth of the 3 tumor lines without and with added C5a; assay type: cell-based, murine; conditions: all 3 tumor lines
From the text: as §1

PI-3Kγ = PI-3Kγ enzyme activity in immunoprecipitates of tumor lines with added C5a; assay type: cell-based, murine; conditions: PI-3Kγ immunoprecipitates
From the text: as §1

Molecule | anti-CD3+anti-CD28-induced phosphorylation of AKT (phospho-Ser473 AKT) | upregulation of IL-2 and IFNγ mRNA expression ([1]; 0.1 μM PI-103) | upregulation of complement gene expression ([1]; 0.1 μM PI-103) | EGF induced EGFR phosphorylation (EGF receptor (EGFR); 3 tumor lines, 2 hr pre-treatment, increasing amounts of EGF for 2 min) | overcoming of the suppressive effects of PI-103 by added C5a ([1]; 0.1 μM PI-103 + 10 ng/ml C5a) | augmentation of 6 hr viability of C5-deficient or C3−/− T cells (T cells) | cell survival in comparison with control (B16/F10 (melanoma cell)) | cell survival in comparison with control (E0771 (breast cancer)) | cell survival in comparison with control (MCA 205 (fibrosarcoma)) | EGFR phosphorylation (EGF receptor (EGFR); anti-EGFR immunoprecipitates, added C5a) | tumor cell numbers (3 tumor lines) | PI-3Kγ enzyme activity (PI-3Kγ)
Oc1cccc(-c2nc(N3CCOCC3)c3oc4ncccc4c3n2)c1 [PI-103] | abrogated | eliminated | prevented | inhibited EGFR phosphorylation in an identical fashion | – | – | – | – | – | – | – | –
C5a: Murine C5a complement anaphylatoxin from Cell Sciences (protein) NLHLLRQKIEEQAAKYKHSVPKKCCYDGARVNFYETCEERVARVTIGPLCIRAFNECCTIANKIRKESPHKPVQLGR | – | – | – | – | could not be overcome | ~25% | enhances cell survival | enhances cell survival | enhances cell survival | augmented EGFR phosphorylation | increased tumor cell numbers | augmented PI-3Kγ enzyme activity

Reference: patent US8940299B2, “Method of treating cancer” (Case Western Reserve University, priority 2008, dated 2015)
